T1: human C5a (human, UniProt P01031 678-751)
T1 sequence (looked up): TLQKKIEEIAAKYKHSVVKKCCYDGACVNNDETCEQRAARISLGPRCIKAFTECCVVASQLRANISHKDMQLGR


Columns and labels:
human C5a [1] = target: T1, human C5a; experiment: SPR (Biacore), antibody captured by anti-human Fc on CM5 chip, human C5a 0.6-5.9 nM in solution, 1:1 Langmuir fit; humanized antibody
Source text: The humanized antibody was subjected to BIAcore analysis to quantify its affinity for human C5a, in part, to determine if humanization affected the binding affinity of the antibody for its antigen. See, e.g., Karlsson and Larsson (2004) Methods Mol Biol 248:389-415. Briefly, the humanized antibody was screened with 3-4 concentrations of human C5a (antigen) using a capture technique. The antibody was captured by an anti-Fc (human) antibody directly immobilized on a CM5 sensor chip with various concentrations in the range from 0.6 nM to 5.9 nM of human C5a passed over the sensor chip surface. The surface was regenerated with 20 mM HCl, 0.02% P20 after each cycle to remove bound antibody and antigen. The data were evaluated using Biacore BIAevaluation software using a 1:1 Langmuir Model Fit (Rmax:Global Fit; RI:Local Fit). Kinetics information such as kₐ (Association Rate constant), kd (Dissociation Rate constant), and KD (Equillibrium Dissociation constant) was obtained from the fit. […] Methods for testing the humanized antibody for reduced immunogenicity in a human, as compared to the donor antibody, are known in the art and described herein.

human C5a [2] = target: T1, human C5a; experiment: SPR (Biacore), 'under similar conditions' to the humanized antibody; murine antibody

| Binder | Kd (human C5a [1]) [nM] | koff (human C5a [1]) [s⁻¹] | kon (human C5a [1]) [M⁻¹ s⁻¹] | Kd (human C5a [2]) [nM] | koff (human C5a [2]) [s⁻¹] | kon (human C5a [2]) [M⁻¹ s⁻¹] |
| --- | --- | --- | --- | --- | --- | --- |
| humanized anti-human C5a antibody (antibody, V domains shown, also called humanized anti-C5a antibody; the humanized antibody) VH: QVQLVQSGAEVKKPGASVKVSCKASGYTFTDYSMDWVRQAPGQGLEWMGAINPNSGGTNYNQKFKDRVTMTRDTSTSTVYMELSSLRSEDTAVYYCARSGSYDGYYAMDYWGQGTTVTVSS VL: DIQMTQSPSSLSASVGDRVTITCRASESVDSYGNSFMHWYQQKPGKAPKLLIYRASNLESGVPSRFSGSGSGTDFTLTISSLQPEDFATYYCQQSNEDPYTFGGGTKVEIK | ~0.298 | ~0.000576 | ~1.93e+06 | – | – | – |
| murine anti-human C5a antibody (antibody, V domains shown, also called murine anti-C5a antibody; murine anti-C5a antibody counterpart) VH: EVQLQQSGPELVKPGSSVKISCKASGYTFTDYSMDWVKQSHGKSLEWIGAINPNSGGTNYSQKFKDKATLTVDKSSSTAYMELRSLTSEDSAVYYCASSGSYDGYYAMDYWGQGTSVTVSS VL: DIVMTQSPASLAVSLGQRATISCRASESVDSYGNSFMHWYQQKPGQPPKLLIYRASNLESGIPARFSGSGSRTDFTLTINPVEADDVATYYCQQSNEDPYTFGGGTKLEIKR | – | – | – | ~0.512 | ~0.00141 | ~2.76e+06 |

Source: patent publication US20140206849A1 (Alexion, published 2014)
